Test results from the supplement of paper PMC9112550, “Optimization of the antimicrobial peptide Bac7 by deep mutational scanning” (BMC Biology, 2022).
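Note: peptides expressed intracellularly from a pBAD plasmid library in pooled LB shake-flask culture, induced with 0.3% L-arabinose, DNA abundance read by NGS, three biological replicates, DESeq2 with apeglm shrinkage.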

What follows are sequences tested on Escherichia coli TOP10 (assay: shrunken log2 fold change of peptide-encoding DNA abundance (4.5 h post-induction vs induction); higher = less antimicrobial activity (less host growth inhibition)). Conditions: time post-induction: 4.5 h; library: site-saturation at positions 5, 18, 19, 20.
With RRIRTRPPRLPRPRPRPNNSPRP the “shrunken log2 fold change” value was -0.61.
With RRIRTRPPRLPRPRPRPNPFPRP the “shrunken log2 fold change” value was -0.216.
With RRIRTRPPRLPRPRPRPNRFPRP the “shrunken log2 fold change” value was -0.00879.
RRIRTRPPRLPRPRPRPNSPPRP was tested, and the “shrunken log2 fold change” value was -0.221.
For RRIRTRPPRLPRPRPRPNTNPRP, the “shrunken log2 fold change” value was -0.556.
For RRIRTRPPRLPRPRPRPNVNPRP, the “shrunken log2 fold change” value was 1.5.
For RRIRTRPPRLPRPRPRPNWVPRP, the “shrunken log2 fold change” value was -0.159.
RRIRTRPPRLPRPRPRPPAPPRP was tested, and the “shrunken log2 fold change” value was 0.592.
With RRIRTRPPRLPRPRPRPPCHPRP the “shrunken log2 fold change” value was -0.164.
In the case of RRIRTRPPRLPRPRPRPPCNPRP, the “shrunken log2 fold change” value is reported as -0.0091.
RRIRTRPPRLPRPRPRPPDEPRP was tested, and the “shrunken log2 fold change” value was 0.0184.
With RRIRTRPPRLPRPRPRPPFAPRP the “shrunken log2 fold change” value was 0.195.
RRIRTRPPRLPRPRPRPPFVPRP was tested, and the “shrunken log2 fold change” value was 0.227.
In the case of RRIRTRPPRLPRPRPRPPGNPRP, the “shrunken log2 fold change” value is reported as -0.0517.
RRIRTRPPRLPRPRPRPPHTPRP was tested, and the “shrunken log2 fold change” value was 0.0399.
With RRIRTRPPRLPRPRPRPPHVPRP the “shrunken log2 fold change” value was 0.307.
With RRIRTRPPRLPRPRPRPPKIPRP the “shrunken log2 fold change” value was -0.112.
In the case of RRIRTRPPRLPRPRPRPPKQPRP, the “shrunken log2 fold change” value is reported as -0.00507.
For RRIRTRPPRLPRPRPRPPNLPRP, the “shrunken log2 fold change” value was 0.0303.
RRIRTRPPRLPRPRPRPPNPPRP was tested, and the “shrunken log2 fold change” value was 0.442.
RRIRTRPPRLPRPRPRPPPPPRP was tested, and the “shrunken log2 fold change” value was 0.862.
In the case of RRIRTRPPRLPRPRPRPPRSPRP, the “shrunken log2 fold change” value is reported as 0.529.
For RRIRTRPPRLPRPRPRPPTEPRP, the “shrunken log2 fold change” value was 0.498.
For RRIRTRPPRLPRPRPRPPTNPRP, the “shrunken log2 fold change” value was 0.156.
RRIRTRPPRLPRPRPRPPWDPRP was tested, and the “shrunken log2 fold change” value was 0.294.
RRIRTRPPRLPRPRPRPQATPRP was tested, and the “shrunken log2 fold change” value was 0.119.
In the case of RRIRTRPPRLPRPRPRPQCEPRP, the “shrunken log2 fold change” value is reported as -0.0143.
RRIRTRPPRLPRPRPRPQDAPRP was tested, and the “shrunken log2 fold change” value was -0.0107.
With RRIRTRPPRLPRPRPRPQDQPRP the “shrunken log2 fold change” value was 0.0516.
In the case of RRIRTRPPRLPRPRPRPQEVPRP, the “shrunken log2 fold change” value is reported as -0.0102.
For RRIRTRPPRLPRPRPRPQEWPRP, the “shrunken log2 fold change” value was -0.0128.
In the case of RRIRTRPPRLPRPRPRPQFQPRP, the “shrunken log2 fold change” value is reported as 0.183.
In the case of RRIRTRPPRLPRPRPRPQGMPRP, the “shrunken log2 fold change” value is reported as 0.0427.
For RRIRTRPPRLPRPRPRPQISPRP, the “shrunken log2 fold change” value was -0.024.
With RRIRTRPPRLPRPRPRPQKDPRP the “shrunken log2 fold change” value was -0.455.
With RRIRTRPPRLPRPRPRPQKVPRP the “shrunken log2 fold change” value was -0.0169.
RRIRTRPPRLPRPRPRPQLYPRP was tested, and the “shrunken log2 fold change” value was -0.0657.
For RRIRTRPPRLPRPRPRPQMKPRP, the “shrunken log2 fold change” value was -0.449.
RRIRTRPPRLPRPRPRPQMTPRP was tested, and the “shrunken log2 fold change” value was 0.0824.
With RRIRTRPPRLPRPRPRPQMYPRP the “shrunken log2 fold change” value was -0.148.
In the case of RRIRTRPPRLPRPRPRPQPQPRP, the “shrunken log2 fold change” value is reported as 0.222.
In the case of RRIRTRPPRLPRPRPRPQQYPRP, the “shrunken log2 fold change” value is reported as -0.0717.
In the case of RRIRTRPPRLPRPRPRPQRDPRP, the “shrunken log2 fold change” value is reported as 0.347.
RRIRTRPPRLPRPRPRPQRTPRP was tested, and the “shrunken log2 fold change” value was -0.296.
For RRIRTRPPRLPRPRPRPQSAPRP, the “shrunken log2 fold change” value was -0.0745.
RRIRTRPPRLPRPRPRPQYHPRP was tested, and the “shrunken log2 fold change” value was -0.329.
With RRIRTRPPRLPRPRPRPRAIPRP the “shrunken log2 fold change” value was 0.196.
In the case of RRIRTRPPRLPRPRPRPRALPRP, the “shrunken log2 fold change” value is reported as 0.116.
For RRIRTRPPRLPRPRPRPRATPRP, the “shrunken log2 fold change” value was 0.299.
With RRIRTRPPRLPRPRPRPRDWPRP the “shrunken log2 fold change” value was 0.483.
RRIRTRPPRLPRPRPRPREDPRP was tested, and the “shrunken log2 fold change” value was -0.147.
For RRIRTRPPRLPRPRPRPREFPRP, the “shrunken log2 fold change” value was 0.33.
RRIRTRPPRLPRPRPRPREKPRP was tested, and the “shrunken log2 fold change” value was -0.00088.
RRIRTRPPRLPRPRPRPRFCPRP was tested, and the “shrunken log2 fold change” value was 0.443.
For RRIRTRPPRLPRPRPRPRFEPRP, the “shrunken log2 fold change” value was 0.0138.
In the case of RRIRTRPPRLPRPRPRPRFIPRP, the “shrunken log2 fold change” value is reported as -0.806.
For RRIRTRPPRLPRPRPRPRFQPRP, the “shrunken log2 fold change” value was 0.177.
In the case of RRIRTRPPRLPRPRPRPRGMPRP, the “shrunken log2 fold change” value is reported as 0.24.
RRIRTRPPRLPRPRPRPRGPPRP was tested, and the “shrunken log2 fold change” value was 1.02.
For RRIRTRPPRLPRPRPRPRGQPRP, the “shrunken log2 fold change” value was 0.411.
With RRIRTRPPRLPRPRPRPRGWPRP the “shrunken log2 fold change” value was 0.897.
For RRIRTRPPRLPRPRPRPRHGPRP, the “shrunken log2 fold change” value was 0.745.
For RRIRTRPPRLPRPRPRPRHRPRP, the “shrunken log2 fold change” value was 0.0476.
RRIRTRPPRLPRPRPRPRHTPRP was tested, and the “shrunken log2 fold change” value was -0.16.
For RRIRTRPPRLPRPRPRPRIGPRP, the “shrunken log2 fold change” value was 0.116.
In the case of RRIRTRPPRLPRPRPRPRKNPRP, the “shrunken log2 fold change” value is reported as 0.136.
With RRIRTRPPRLPRPRPRPRKYPRP the “shrunken log2 fold change” value was -0.809.
RRIRTRPPRLPRPRPRPRLKPRP was tested, and the “shrunken log2 fold change” value was 0.0991.
For RRIRTRPPRLPRPRPRPRLNPRP, the “shrunken log2 fold change” value was -0.251.
For RRIRTRPPRLPRPRPRPRMHPRP, the “shrunken log2 fold change” value was 0.0254.
With RRIRTRPPRLPRPRPRPRMMPRP the “shrunken log2 fold change” value was 1.32.
In the case of RRIRTRPPRLPRPRPRPRNMPRP, the “shrunken log2 fold change” value is reported as -0.493.
RRIRTRPPRLPRPRPRPRQFPRP was tested, and the “shrunken log2 fold change” value was -0.0836.
RRIRTRPPRLPRPRPRPRQWPRP was tested, and the “shrunken log2 fold change” value was -0.054.
In the case of RRIRTRPPRLPRPRPRPRREPRP, the “shrunken log2 fold change” value is reported as 0.351.
In the case of RRIRTRPPRLPRPRPRPRRLPRP, the “shrunken log2 fold change” value is reported as 0.172.
For RRIRTRPPRLPRPRPRPRSHPRP, the “shrunken log2 fold change” value was 0.109.
For RRIRTRPPRLPRPRPRPRSVPRP, the “shrunken log2 fold change” value was -0.272.
With RRIRTRPPRLPRPRPRPRTGPRP the “shrunken log2 fold change” value was 0.312.
For RRIRTRPPRLPRPRPRPRVAPRP, the “shrunken log2 fold change” value was 0.258.
RRIRTRPPRLPRPRPRPRWYPRP was tested, and the “shrunken log2 fold change” value was -0.288.
RRIRTRPPRLPRPRPRPSAFPRP was tested, and the “shrunken log2 fold change” value was -0.0245.
RRIRTRPPRLPRPRPRPSALPRP was tested, and the “shrunken log2 fold change” value was -0.178.
RRIRTRPPRLPRPRPRPSANPRP was tested, and the “shrunken log2 fold change” value was -0.0622.
RRIRTRPPRLPRPRPRPSCIPRP was tested, and the “shrunken log2 fold change” value was -0.44.
For RRIRTRPPRLPRPRPRPSDDPRP, the “shrunken log2 fold change” value was -0.182.
In the case of RRIRTRPPRLPRPRPRPSDNPRP, the “shrunken log2 fold change” value is reported as -0.697.
For RRIRTRPPRLPRPRPRPSFMPRP, the “shrunken log2 fold change” value was -0.412.
With RRIRTRPPRLPRPRPRPSHSPRP the “shrunken log2 fold change” value was -0.399.
In the case of RRIRTRPPRLPRPRPRPSHYPRP, the “shrunken log2 fold change” value is reported as -1.32.
In the case of RRIRTRPPRLPRPRPRPSIWPRP, the “shrunken log2 fold change” value is reported as 0.112.
With RRIRTRPPRLPRPRPRPSLFPRP the “shrunken log2 fold change” value was -0.248.
In the case of RRIRTRPPRLPRPRPRPSLWPRP, the “shrunken log2 fold change” value is reported as 0.277.
For RRIRTRPPRLPRPRPRPSNWPRP, the “shrunken log2 fold change” value was -0.281.
For RRIRTRPPRLPRPRPRPSNYPRP, the “shrunken log2 fold change” value was -1.22.
For RRIRTRPPRLPRPRPRPSPIPRP, the “shrunken log2 fold change” value was -0.733.
For RRIRTRPPRLPRPRPRPSQAPRP, the “shrunken log2 fold change” value was 0.0983.
RRIRTRPPRLPRPRPRPSQKPRP was tested, and the “shrunken log2 fold change” value was 0.039.
With RRIRTRPPRLPRPRPRPSQVPRP the “shrunken log2 fold change” value was -0.2.
RRIRTRPPRLPRPRPRPSRQPRP was tested, and the “shrunken log2 fold change” value was 0.15.
For RRIRTRPPRLPRPRPRPSSEPRP, the “shrunken log2 fold change” value was -0.0162.
In the case of RRIRTRPPRLPRPRPRPSSTPRP, the “shrunken log2 fold change” value is reported as -0.604.
With RRIRTRPPRLPRPRPRPSSWPRP the “shrunken log2 fold change” value was 0.131.
RRIRTRPPRLPRPRPRPSVSPRP was tested, and the “shrunken log2 fold change” value was -0.386.
With RRIRTRPPRLPRPRPRPSWDPRP the “shrunken log2 fold change” value was -0.262.
RRIRTRPPRLPRPRPRPTATPRP was tested, and the “shrunken log2 fold change” value was 0.286.
RRIRTRPPRLPRPRPRPTCLPRP was tested, and the “shrunken log2 fold change” value was -0.216.
In the case of RRIRTRPPRLPRPRPRPTDEPRP, the “shrunken log2 fold change” value is reported as 0.491.
RRIRTRPPRLPRPRPRPTDNPRP was tested, and the “shrunken log2 fold change” value was -0.302.
